Results: paper doi:10.1101/2020.12.12.421834 (bioRxiv, 2020)
Positions count from the first letter of the chain named.

T1: PD1 N-terminal loop-GST fusion protein (Homo sapiens)
T1 chain: LDSPDRPWNP

B1: M1-6 anti-PD1 antibody (human IgG4/kappa, C-terminal 6xHis) (antibody, V domains shown)
VH: QVQLVESGGDVVQSGGSLRLSCAVSGVVFSDYGFEWVRQAPGKGLEWVAVIWYDGSRKHYADSVQGRFTISRDNFRNMLYLQMTGLRVEDTAKYYCTRSHSHEDYWGQGTLVTVSS
VL: EIVLTQSPATLSLSPGERATLSCGASQNIDNSLAWFQQKPGQAPRLIIYDASKRATGIPARFSGSGSGTDFTLTISTLEPEDFAVYYCQQRDHWPLNFGGGTKVEVK
B2: M1-2 anti-PD1 antibody (human IgG4/kappa, C-terminal 6xHis) (antibody, V domains shown)
VH: QVQLVESGGDVVQPGGSLRLSCAASGVAFSDYGMEWVRQAPGKGLEWLAVIWYDGSRKHYADSVKGRFTISRDNSKNILYLQMNSLRAEDTAMYYCARCHSKDDYWGQGTLVTVSS
VL: EIVLTQFPATLSLSPGERATLSCRTSQNIDSDLAWFQQKPGQAPRLIIYDASNRATGIPARFSGGGSGTDFTLTITSLEPEDFAVYYCQQRTTWPLTFGGGTKVEIK
B3: M1-3 anti-PD1 antibody (human IgG4/kappa, C-terminal 6xHis) (antibody, V domains shown)
VH: QEWLVESGGDVVQPGGSLRLSCATSKVTFNDFGIHWVRQAPGKGLEWVAIIWYDGSRNHYADSVRGRFTLSRDNSKNMVHLHMSSLRTEDTAMYYCARGIHSNDDYWGQGTMVTVSS
VL: EIVLTQSPATLSLSPGERATLSCRTSQSVSSDLAWFQQKPGQAPRLFIFDASKRVNGIPARFSGSGSGTDFTLTISSLEPEDFAVYYCQQRTDWPLTFGGGSRVEIK
B4: M2-1 anti-PD1 antibody (human IgG4/kappa, C-terminal 6xHis) (antibody, V domains shown)
VH: QVQLVESGGDVVQPGGSLRLSCSASGLVFRDYGMNWVRQAPGKGLEWVGLIWYDGTKKYYSDFVKGRFTISRDNSKNMLYLQMNNLRAEDTAIYYCARFLIGATRRGNAMDYWGQGTSVIVSS
VL: EVVLTQSPATLSLSPGERATLSCRASQSIDSDLAWSQQKTGQPPRLIIYDASNRATGIPARFSGSGSGTDFTLTISSLEPEDFAVYYCQQRSDWPLTFGGGTKVEIR
B5: M2-2 anti-PD1 antibody (human IgG4/kappa, C-terminal 6xHis) (antibody, V domains shown)
VH: B4 VH with F29I, R30S, T56S, M78I, I93M, I120T
VL: B4 VL with T40P
B6: M1-1 anti-PD1 antibody (human IgG4/kappa, C-terminal 6xHis) (antibody, V domains shown)
VH: QVQLVESGGDVVQPGGSLRLSCAASGVAFRDYGMHWVRQAPGKGLEWVAVIWYDGSKKYYGDSVKGRFTVSRDNSKNMLYLEMNGLKAEDTAMYYCARNDDYWGQGTLVTVSS
VL: EIVLTQSPATLSLSPGERATLSCRASQSVSNSLSWYQQNPGQSPRLIIYDTSKRATGIPARFSGSGSGTDFTLTINNLETEDFAVYYCHQRSDWPLTFGGGTKVEIK
B7: M1-5 anti-PD1 antibody (human IgG4/kappa, C-terminal 6xHis) (antibody, V domains shown)
VH: QVQLVESGGDVVQPGGSLRLSCTVSGAVFRDLGMEWVRQAPGKGLEWLAVIWYDGGRKHYADSVKGRFTISRDNSRNMLFLQMNGLRVDDTAMYYCTRSHSTDDYWGQGTLVTVSS
VL: EIVLTQSPATLSVSPGERATLSCRASQSISSDLAWFQQKPGQAPRLIIHGASKRATGIPARFSGSGSGTDFTLTISSLEPEDFAVYYCQQRDSWPLNFGGGTKVEIK
B8: M2-3 anti-PD1 antibody (human IgG4/kappa, C-terminal 6xHis) (antibody, V domains shown)
VH: QGHLVESGGDVVLPGGSLRLSCTESGVDLSDFGIHWVRQTPGKGLEWVALIWYDGSKKFYADSVKDRFTISRDNSKNMVYLEMISLRVEDTAMYFCARGIRRGPWFTYWGPGTLVTVST
VL: B7 VL with A9V, T10I, V13L, K39T, H49Y, G50D, K53N, D92S, S93N, N97T
B9: M2-5 anti-PD1 antibody (human IgG4/kappa, C-terminal 6xHis) (antibody, V domains shown)
VH: QVQLVESGGDVVQPGGSLRLSCAASGVVFSDYGLYWVRQAPGKGLEWVALIWYDGSKKFYADSVKGRFSISRDNSKNMLYLQMNNLRADDSAIYYCSRGIRQGPWFAYWGQGTRVTVSP
VL: B4 VL with V2I, D30S, A34T, S36F, T40P, P43A, A84V, Q89L, R107K
B10: M1-4 anti-PD1 antibody (human IgG4/kappa, C-terminal 6xHis) (antibody, V domains shown)
VH: B1 VH with S14P, V28T, S30G, Y32F, D62E, Q65R, F75S, L79M, Q82E
VL: B7 VL with V13L, S31N, D32Y, P40S, G50D, S52F, T56A, A60T, S93N
B11: M2-4 anti-PD1 antibody (human IgG4/kappa, C-terminal 6xHis) (antibody, V domains shown)
VH: QVQLVESGGDVVQPGGSLRLSCAASGVAFRNYGMHWVRQAPGKGLEWVAIIWYDGSNKYYADSVKGRFTISRDNSKNMLYLQMNSLRAEDTAMYYCARLSIGTTHYFDTDDYWGQGTSVTVSS
VL: EIVLTQSPATLSLSPGERATLSCRASQSVSSYLAWYQQKVGQAPRLIIFDASNRATGIPARFSGSGSGTDFTLTITSLDPEDFAVYYCQQRSAWPLTFGGGTKVEIR
B12: M1-7 anti-PD1 antibody (human IgG4/kappa, C-terminal 6xHis) (antibody, V domains shown)
VH: B2 VH with V2L, A28V, Y32F, M34L, I78M, A88V, D103E
VL: B2 VL with V3E, L4V, F7S, T25A, N28S, S31T, K39R, A43T, N53K, T76S
B13: 17D8 anti-PD1 antibody (human IgG4/kappa, C-terminal 6xHis) (antibody, V domains shown)
VH: B6 VH with R30S, D31N, K57N, G61A, V70I, E82Q, G85S, K87R
VL: B11 VL with V40P, F49Y, T76S, D79E, A93N, R107K
B14: M2-1 anti-PD1 antibody (human IgG4/k, without C-terminal His tag) (antibody, V domains shown)
VH: B4 VH
VL: B4 VL
B15: M1-5 anti-PD1 antibody (human IgG4/k, without C-terminal His tag) (antibody, V domains shown)
VH: B7 VH
VL: B7 VL
B16: 17D8 anti-PD1 antibody (human IgG4/k, without C-terminal His tag) (antibody, V domains shown)
VH: B6 VH with R30S, D31N, K57N, G61A, V70I, E82Q, G85S, K87R
VL: B11 VL with V40P, F49Y, T76S, D79E, A93N, R107K

Target: T1, PD1 N-terminal loop-GST fusion protein
Assay: ELISA

Does B1 bind?
Result: binds

Does B2 bind?
Result: no binding

Does B3 bind?
Result: binds

Does B4 bind?
Result: binds

Does B5 bind?
Result: binds

Does B6 bind?
Result: binds

Does B7 bind?
Result: binds

Does B8 bind?
Result: binds

Does B9 bind?
Result: binds

Does B10 bind?
Result: binds

Does B11 bind?
Result: binds

What follows are binders tested against full-length human PD1 expressed on the surface of NS1 cells (human, UniProt Q15116) (assay: flow cytometry on cells).
full-length human PD1 expressed on the surface of NS1 cells, sequence (Q15116 25-288): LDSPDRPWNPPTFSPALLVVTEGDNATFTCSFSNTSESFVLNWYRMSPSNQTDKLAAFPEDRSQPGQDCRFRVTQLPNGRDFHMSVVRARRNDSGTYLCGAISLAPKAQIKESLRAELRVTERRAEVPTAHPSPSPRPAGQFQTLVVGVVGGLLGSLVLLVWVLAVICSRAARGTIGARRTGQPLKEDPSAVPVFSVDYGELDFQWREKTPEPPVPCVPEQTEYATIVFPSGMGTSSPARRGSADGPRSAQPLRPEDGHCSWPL

Does B1 bind?
Result: binds

Does B12 bind?
Result: binds

Does B2 bind?
Result: binds

Does B3 bind?
Result: binds

Does B4 bind?
Result: binds

Does B5 bind?
Result: binds

Does B6 bind?
Result: binds

Does B7 bind?
Result: binds

Does B8 bind?
Result: binds

Does B9 bind?
Result: binds

Does B10 bind?
Result: binds

Does B13 bind?
Result: binds

Does B11 bind?
Result: binds

Each binder was assayed against T2, PD1 extracellular domain, without Fc fusion (Homo sapiens, UniProt Q15116) (assay: ELISA).
T2 sequence (Q15116 25-170): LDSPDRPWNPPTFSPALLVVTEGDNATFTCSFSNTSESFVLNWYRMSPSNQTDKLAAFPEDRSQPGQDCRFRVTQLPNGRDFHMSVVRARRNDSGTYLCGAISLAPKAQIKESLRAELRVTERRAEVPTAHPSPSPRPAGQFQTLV

Does B1 bind?
Result: binds

Does B3 bind?
Result: binds

Does B4 bind?
Result: binds

Does B5 bind?
Result: binds

Does B7 bind?
Result: binds

Does B8 bind?
Result: binds

Does B9 bind?
Result: binds

Does B10 bind?
Result: binds

The binders below were run against T2, PD1 extracellular domain, without Fc … (assay: SPR).

Does B14 bind?
Result: binds

Does B15 bind?
Result: binds

Does B16 bind?
Result: binds
